Biological target: des(methyl) spinach Rubisco (ribulose-1,5-bisphosphate carboxylase-oxygenase holoenzyme) (UniProt P00875)

Question: How did the “carboxylase activity at saturating and low CO2” value turn out when “wild-type pea Rubisco large subunit epsilon-N-methyltransferase (pea Rubisco LSMT)” was run?
Answer: Its value is “showed no difference in activity between native Rubisco and Rubisco with bound pea Rubisco LSMT alone”.

Source: US20090070901
